Patent US20230049732A1 (UNIVERSITY OF LOUISVILLE RESEARCH FOUNDATION, published 2023)
Changes are numbered by the printed parent chain.

T1: KEYA368A369-VLPs of B19V (parvovirus B19 genotype 1 (mutated), UniProt P07299 228-781)
T1 construct: also called construct D
T1 chain: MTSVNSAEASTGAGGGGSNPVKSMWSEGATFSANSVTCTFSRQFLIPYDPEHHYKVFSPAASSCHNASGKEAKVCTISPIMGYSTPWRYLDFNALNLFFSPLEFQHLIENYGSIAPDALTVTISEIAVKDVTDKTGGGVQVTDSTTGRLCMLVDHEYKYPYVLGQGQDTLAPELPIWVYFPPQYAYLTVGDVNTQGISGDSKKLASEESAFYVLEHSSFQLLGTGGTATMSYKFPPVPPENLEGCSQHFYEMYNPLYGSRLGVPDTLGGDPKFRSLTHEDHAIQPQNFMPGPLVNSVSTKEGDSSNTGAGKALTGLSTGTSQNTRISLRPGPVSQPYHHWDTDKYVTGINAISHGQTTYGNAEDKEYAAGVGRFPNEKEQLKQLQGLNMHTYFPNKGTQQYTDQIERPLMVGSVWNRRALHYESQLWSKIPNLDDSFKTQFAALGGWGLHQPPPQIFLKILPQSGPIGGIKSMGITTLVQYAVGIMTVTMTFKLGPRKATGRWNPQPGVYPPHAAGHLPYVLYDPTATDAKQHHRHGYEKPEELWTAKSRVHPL

T2: HPV16 VLPs (human papillomavirus type 16, UniProt P03101 1-505)
T2 construct: Specificity control; also called human papillomavirus VLPs
T2 sequence: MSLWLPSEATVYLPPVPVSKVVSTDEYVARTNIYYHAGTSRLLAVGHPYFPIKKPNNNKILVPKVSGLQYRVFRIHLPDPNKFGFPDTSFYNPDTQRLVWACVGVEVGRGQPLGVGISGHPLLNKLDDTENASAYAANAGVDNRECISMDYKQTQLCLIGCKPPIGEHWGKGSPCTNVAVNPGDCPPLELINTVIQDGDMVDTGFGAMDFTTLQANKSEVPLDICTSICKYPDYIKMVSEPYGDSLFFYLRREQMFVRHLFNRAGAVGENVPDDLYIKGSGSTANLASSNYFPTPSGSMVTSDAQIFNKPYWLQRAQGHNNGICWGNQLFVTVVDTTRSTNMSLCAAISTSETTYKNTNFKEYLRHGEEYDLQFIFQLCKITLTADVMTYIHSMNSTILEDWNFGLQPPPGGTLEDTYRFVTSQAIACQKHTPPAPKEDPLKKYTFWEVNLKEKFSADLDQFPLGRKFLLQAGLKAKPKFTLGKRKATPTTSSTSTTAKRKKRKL

T3: QQW401TDQ-VLPs of B19V (parvovirus B19 genotype 1 (mutated), UniProt P07299 228-781)
T3 construct: also called construct B
T3 chain: T1 chain with A368Q, A369Q, Y401W

T4: N399N400F401TDT404-VLPs of parvovirus B19 (parvovirus B19 genotype 1 (mutated), UniProt P07299 228-781)
T4 construct: also called NNF401TDT-B19V; NNF401TDT
T4 chain: T1 chain with A368Q, A369Q, Q399N, Q400N, Y401F, Q404T

B1: MAb #25 (antibody, V domains shown)
VH: QVQLQQPGAELVRPGASVKLSCKASGYTFTNYWMHWVKQRPEQGLEWIGRIDPYDSETHYNQKFKDKAILTVDTSSNTAYMQLSSLTSEDSAVYYCTSYYYGSNYVWHFDVWGAGTTVTVSS
VL: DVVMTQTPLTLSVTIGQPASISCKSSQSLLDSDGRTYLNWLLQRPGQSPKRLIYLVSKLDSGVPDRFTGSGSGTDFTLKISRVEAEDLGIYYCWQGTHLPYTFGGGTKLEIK
notes: Murine hybridoma antibody, supernatant; also called antibody 25
B2: MAb #91 (antibody, V domains shown)
VH: EVQLQQSGPELVKPGASVKISCKASGYSFTDYFMNWVKQSHGKSLEWIGRINPYNGDSFYNQNFRGSVTLTVDKSSGTAHMELLSLTSEDSTVYYCGAYRYDGYAMDYWGQGTSVTVSS
VL: DVVMTQTPLSLPVSLGDQASISCRSSQSLVHSDGNTYLHWYLQKPGQSPKLLIYKVSNRFSGVPDRFSGSGSGTDFTLKISRVEAEDLGVYFCSQSTHVPFTFGSGTKLEIK
notes: Murine hybridoma antibody, supernatant; also called antibody 91

Legend:
Test in all cases: ELISA, intact VLPs coated, hybridoma supernatant
KEYA368A369-VLPs of B19V = biological target: T1, KEYA368A369-VLPs of B19V
HPV16 VLPs = biological target: T2, HPV16 VLPs
QQW401TDQ-VLPs of B19V = biological target: T3, QQW401TDQ-VLPs of B19V
[1] = biological target: T4, N399N400F401TDT404-VLPs of parvovirus …

| Binder | ELISA absorbance (405 nm) (KEYA368A369-VLPs of B19V) | ELISA absorbance (405 nm) (HPV16 VLPs) | ELISA absorbance (405 nm) (QQW401TDQ-VLPs of B19V) | ELISA absorbance (405 nm) [1] |
| --- | --- | --- | --- | --- |
| B1 | 2.79 | 0.009 | 1.53 | 3.26 |
| B2 | 2.59 | 0.005 | 1.64 | 3.86 |
